Source: US20250223583A1 (BROAD INSTITUTE, published 2025)

Biological target: T1, murine CD47 (murine, UniProt Q61735 19-303)
T1 sequence (looked up): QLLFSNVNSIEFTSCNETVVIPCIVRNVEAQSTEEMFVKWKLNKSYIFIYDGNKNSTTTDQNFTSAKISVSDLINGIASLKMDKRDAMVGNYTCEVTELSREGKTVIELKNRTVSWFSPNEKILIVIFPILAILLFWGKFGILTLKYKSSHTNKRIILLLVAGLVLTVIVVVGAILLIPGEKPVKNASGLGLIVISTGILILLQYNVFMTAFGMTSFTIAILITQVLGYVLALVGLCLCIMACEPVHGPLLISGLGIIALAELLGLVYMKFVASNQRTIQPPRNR
Experiment: cell-based or functional assay

biotin labeling of B16 cells, fold over non-targeted ultraID at 1 nM: 10 fold | streptavidin-PE signal on B16 cells, enzyme-based labeling relative to binding by the biotinylated nanobody construct alone: ≥ 20 fold
B1: anti-mCD47 nanobody-ultraID (murine CD47) (other)
chain: QVQLVESGGGLVEPGGSLRLSCAASGIIFKINDMGWYRQAPGKRREWVAASTGGDEAIYRDSVKDRFTISRDAKNSVFLQMNSLKPEDTAVYYCTAVISTDRDGTEWRRYWGQGTQVTVSSGGLPETGGGGGSGGGSGGGSMFKNLIWLKEVDSTQERLKEWNVSYGTALVADRQTKGRGGPGRKWLSQEGGLYFSFLLNPKEFENLLQLPLVLGLSVSEALEEITEIPFSLKWPNDVYFQEKKVSGVLCELSKDKLIVGIGINVNQREIPEEIKDRATTLYEITGKDWDRKEVLLKVLKRISENLKKFKEK
